Laboratory results reported in patent publication US20070196376A1 (AstraZeneca / MedImmune, published 2007).
Changes are numbered by the printed parent chain.

Experiments:
[1] = target: T1, Recombinant human IGF-II (insulin-like growth factor-II) (human, UniProt P01344 25-91); assay: limited antigen ELISA, supernatant 1:25
T1 construct: Bought; also called IGF2; IGF-2

[2] = target: T2, Recombinant human IGF-I (insulin-like growth factor-I) (human, UniProt P05019 49-118); assay: limited antigen ELISA, supernatant 1:25
T2 construct: Bought; also called IGF1; IGF-1

[3] = target: T3, human insulin-like growth factor-I (IGF-I) (human, UniProt P05019 49-118); assay: Biacore low-resolution screen, mAb captured, IGF-I injected
T3 construct: also called IGF1; IGF-1

[4] = target: T3, human insulin-like growth factor-I …; assay: cell-based or functional assay
[5] = target: T4, human insulin-like growth factor-II (IGF-II) (human, UniProt P01344 25-91); assay: cell-based or functional assay
[6] = target: T3, human insulin-like growth factor-I …; assay: cell-based or functional assay; remark: listed apart in the source
[7] = target: T4, human insulin-like growth factor-II …; assay: cell-based or functional assay; remark: listed apart in the source
[8] = target: T3, human insulin-like growth factor-I …; assay: cell-based or functional assay; remark: listed apart in the source
[9] = target: T4, human insulin-like growth factor-II …; assay: cell-based or functional assay; remark: listed apart in the source
[10] = target: T4, human insulin-like growth factor-II …; assay: Biacore low-resolution screen, mAb captured, IGF-II injected
[11] = target: T4, human insulin-like growth factor-II …; assay: cell-based or functional assay; remark: listed apart in the source
human insulin = target: T5, human insulin (human, UniProt P01308 25-54; P01308 90-110, limits assumed); assay: Biacore, mAb on CM5 chip, insulin injected
T5 construct: The mature hormone has an A and a B chain cut from the precursor; also called recombinant insulin; hu-Insulin

IGF-II/IGFBP-3 complex = target: T6, IGF-II/IGFBP-3 complex (UniProt P01344 25-91); assay: Biacore, mAb immobilised, preformed complex injected
T6 construct: Preformed non-covalent complex; IGF-II 99.97% complexed by IGFBP-3; also called complexed IGF-II/IGFBP-3

IGF-I/IGFBP-3 complex = target: T7, IGF-I/IGFBP-3 complex (UniProt P05019 49-118); assay: as above
T7 construct: Preformed non-covalent complex; IGF-I 99.97% complexed by IGFBP-3; also called complexed IGF-I/IGFBP-3

B1: mAb 7.158.2 (antibody, V domains shown)
VH: QLQLQESGPGLVKPSETLSLTCTVSGGSIRSSSYYWGWIRQPPGKGLEWIGGIYYSGSTYYNPSLKSRVTMSVDTSKNQFSLKLSSVTAADTAVYYCARQRGHSSGWWYFDLWGRGTLVTVSS
VL: DIQMTQSPSSVSASVGDSVTITCRASQGISSYLAWYQQKPGKAPKLLIYAASSLQSGVPSRFSGNGSGTDFTLTISSLQPEDFATYYCQQANNFPFTFGPGTKVDIKR
notes: also called 7.158.1; 7_158_1
LA OD, IGF2 2 ng/ml [1]: 1.42 OD 450 nm | LA OD, IGF2 4 ng/ml [1]: 2.46 OD 450 nm | LA OD, IGF1 2 ng/ml [2]: 1.71 OD 450 nm | LA OD, IGF1 4 ng/ml [2]: 3 OD 450 nm

B2: mAb 7.158.2 (antibody, V domains shown)
VH: B1 VH
VL: B1 VL
notes: Kappa light chain (L5/JK3); also called 7.158.1; 7_158_1
Kd [3]: 0.5 nM | koff [3]: 0.0022 s⁻¹ | kon [3]: 4.4e+06 M⁻¹ s⁻¹ | EC50 (nM), n = 1, IGF-I pTYR, BxPC3 cells [4]: 4.5 nM | EC50 (nM), n = 2, IGF-I pTYR, BxPC3 cells [4]: 3.6 nM | Max % Inhibition (333.3 nM), n = 1, IGF-I pTYR, BxPC3 cells [4]: 92.9% | Max % Inhibition (333.3 nM), n = 2, IGF-I pTYR, BxPC3 cells [4]: 89.4% | EC50 (nM), n = 2, IGF-II pTYR, BxPC3 cells [5]: 4.2 nM | Max % Inhibition (133.3 nM), n = 2, IGF-II pTYR, BxPC3 cells [5]: 74% | Max % Inhibition (333.3 nM), n = 1, IGF-II pTYR, BxPC3 cells [5]: 92.4% | % Inhibition, mean (n = 3), IGF-I Proliferation Assay, NIH3T3/hIGF-IR cells [6]: 57.4% | EC50 (nM), mean (n = 3), IGF-I Proliferation Assay, NIH3T3/hIGF-IR cells [6]: 42.8 nM | % Inhibition, mean (n = 2), IGF-II Proliferation Assay, NIH3T3/hIGF-IR cells [7]: 54.6% | EC50 (nM), mean (n = 2), IGF-II Proliferation Assay, NIH3T3/hIGF-IR cells [7]: 36 nM | % MAX Activation, mean (n = 2), IGF-I pTYR of hIGF-IR in NIH3T3 cells [8]: 22.7% | EC50 (nM), mean (n = 2), IGF-I pTYR of hIGF-IR in NIH3T3 cells [8]: 28.3 nM | % MAX Activation, mean (n = 2), IGF-II pTYR of hIGF-IR in NIH3T3 cells [9]: 33.7% | EC50 (nM), mean (n = 2), IGF-II pTYR of hIGF-IR in NIH3T3 cells [9]: 11.3 nM | Kd [10]: 0.197 nM | koff [10]: 0.00067 s⁻¹ | kon [10]: 3.4e+06 M⁻¹ s⁻¹ | EC50 (nM), n = 1, IGF-II Proliferation, BxPC3 cells [11]: 0.0013 nM | Max % Inhibition (133.3 nM), n = 2, IGF-II Proliferation, BxPC3 cells [11]: 148% | Max % Inhibition (333.3 nM), n = 1, IGF-II Proliferation, BxPC3 cells [11]: 86.3%

B3: mAb 7.234.2 (antibody, V domains shown)
VH: B1 VH with R30N, Y34N, E48A, K66R
VL: B1 VL with S18R, Q27R, Y32W, K39R, A50T, N65S, N93S
notes: also called 7.234.1; 7_234_1
LA OD, IGF2 2 ng/ml [1]: 1.4 OD 450 nm | LA OD, IGF2 4 ng/ml [1]: 2.44 OD 450 nm | LA OD, IGF1 2 ng/ml [2]: 0.7 OD 450 nm | LA OD, IGF1 4 ng/ml [2]: 1.79 OD 450 nm | binding result (human insulin): no binding (tested: 502 nM)

B4: mAb 7.159.2 (ATCC Accession Number PTA-7424) (antibody, V domains shown)
VH: QVQLVQSGAEVKKPGASVKVSCKASGYTFTSYDINWVRQATGQGLEWMGWMNPNSGNTGYAQKFQGRVTMTRNTSISTAYMELSSLRSEDTAVYYCARDPYYYYYGMDVWGQGTTVTVSS
VL: QSVLTQPPSVSAAPGQKVTISCSGSSSNIENNHVSWYQQLPGTAPKLLIYDNNKRPSGIPDRFSGSKSGTSATLGITGLQTGDEADYYCETWDTSLSAGRVFGGGTKLTVLG
notes: Fully human, lambda light chain (V1-19/JL2); also called 7.159.1; 7_159_1
LA OD, IGF2 2 ng/ml [1]: 1.65 OD 450 nm | LA OD, IGF2 4 ng/ml [1]: 2.47 OD 450 nm | LA OD, IGF1 2 ng/ml [2]: 0.56 OD 450 nm | LA OD, IGF1 4 ng/ml [2]: 0.98 OD 450 nm | binding result (human insulin): no binding (tested: 502 nM) | Kd (IGF-II/IGFBP-3 complex): > 1000 nM | Kd (IGF-I/IGFBP-3 complex): > 1000 nM
